Results taken from US20110052595A1 (Kyowa Kirin, published 2011).
Blank lines part the entries; values can stand above or below the binder they belong to.

Legend:
[1] = target: T1, recombinant secretory human HB-EGF manufactured by R & D System (catalogue number 259-HE/CF) (human, UniProt Q99075 63-148, biotin-labeled with EZ-Link Sulfo-NHS-Biotin in the EGFR binding inhibition assay only); experiment: Biacore T-100, HB-EGF immobilized on CM5 chip, antibody as analyte
T1 construct: Bought protein; also called recombinant human HB-EGF; secretory HB-EGF
Method: In order to analyze binding activities of a mouse antibody KM3566 and the chimeric antibody KM3966 for human HB-EGF in reaction kinetics, the binding activity measurement was carried out using Biacore. All of the following operations were carried out using Biacore T-100 (manufactured by Biacore). Human HB-EGF (manufactured by R & D) prepared into 5 μg/ml using HBS-EP Buffer (manufactured by Biacore) was immobilized onto a CM 5 sensor chip (manufactured by Biacore) to a level of 80 RU (resonance unit) by an amine coupling method. Thereafter, each antibody diluted 5-fold from 9 nmol/l was let flow on the chip at a rate of 10 μl/min, and by analyzing the sensor-gram at each concentration, the association rate constant and dissociation rate constant of each antibody for human HB-EGF were calculated.
It was confirmed based on the results that both antibodies almost the same binding activity for human HB-EGF.

[2] = target: bovine serum albumin (BSA) (bovine, UniProt P02769 25-607); experiment: binding ELISA
[3] = target: T2, mutant HB-EGF in which serine at position 147 from the N-terminal was substituted with threonine (human, UniProt Q99075 63-148); experiment: cell ELISA, biotin-labeled antibody on mutant HB-EGF gene-transferred LMTK cells, corrected for expression with H-6
T2 construct: Transiently expressed on mouse LMTK cells; also called S147T
T2 chain: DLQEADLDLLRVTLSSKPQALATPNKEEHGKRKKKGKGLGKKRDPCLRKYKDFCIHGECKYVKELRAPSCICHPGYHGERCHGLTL
Method: Firstly, biotin-labeled anti-HB-EGF antibody (KM3566, KM3579 or KM3966) diluted to 2 μg/ml with a binding buffer (prepared by adding nonessential amino acids, 20 mM HEPES-NaOH (pH 7.2) and 10% fetal bovine serum to Ham's F12) was allowed to react at 4° C. for 2 hours with 1×10⁵ cells of the mutant HB-EGF gene-transferred cell, human/mouse chimeric HB-EGF gene-transferred cell or mock. After the reaction, the cells were washed twice with an ice-cooled washing buffer (prepared by adding 0.5 mM CaCl₂, 0.5 mM MgCl₂ and 0.1% fetal bovine serum to PBS) and then once with PBS(+) (prepared by adding 0.5 mM CaCl₂ and 0.5 mM MgCl₂ to PBS). A formaldehyde solution diluted to 1.8% with PBS(+) was added to the washed cells, and the cells were fixed at 4° C. for 20 minutes. […] By carrying out development of color using a peroxidase detection kit (ELISA POD Substrate OPD Kit, manufactured by Nacalai Tesque), the absorbance at 492 nm was measured and the activity of cell-bonded HRP was measured.
A value obtained by subtracting the absorbance for mock from the absorbance for each of the various mutant HB-EGF gene-transferred cells or human/mouse chimeric HB-EGF gene-transferred cells of the anti-HB-EGF antibody was used as the value A. […]

Sequence of bovine serum albumin (BSA) (P02769 25-607 limits assumed): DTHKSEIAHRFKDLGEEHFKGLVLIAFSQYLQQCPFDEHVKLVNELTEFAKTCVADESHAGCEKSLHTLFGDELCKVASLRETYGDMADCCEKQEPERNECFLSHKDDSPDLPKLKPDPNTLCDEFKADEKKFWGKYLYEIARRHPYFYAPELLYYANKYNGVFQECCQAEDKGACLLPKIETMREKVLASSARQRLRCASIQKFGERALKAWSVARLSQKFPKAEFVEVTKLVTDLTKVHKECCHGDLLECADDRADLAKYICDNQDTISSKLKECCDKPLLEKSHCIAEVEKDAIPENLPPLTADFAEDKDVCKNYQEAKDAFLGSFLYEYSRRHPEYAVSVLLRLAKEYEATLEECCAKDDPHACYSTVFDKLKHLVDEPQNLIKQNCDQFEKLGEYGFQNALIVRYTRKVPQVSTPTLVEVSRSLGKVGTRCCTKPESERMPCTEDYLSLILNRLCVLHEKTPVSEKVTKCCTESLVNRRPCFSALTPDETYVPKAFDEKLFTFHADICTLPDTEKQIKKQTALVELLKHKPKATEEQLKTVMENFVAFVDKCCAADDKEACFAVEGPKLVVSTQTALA

kon [1]: 270000 M⁻¹ s⁻¹
binding result [2]: no binding
B1: anti-HB-EGF monoclonal antibody KM3566 (antibody, V domains shown)
VH: QVQLQQSGTELARPGASVKLSCKASGYTFRTYGITWVKQRTGQGLEWIGEIFPGSGNTYYNEKFKGKASLTADKSSSTAYMQLSSLTSEDSAVYFCARESFSDGYYGYFDYWGQGTTLTVSS
VL: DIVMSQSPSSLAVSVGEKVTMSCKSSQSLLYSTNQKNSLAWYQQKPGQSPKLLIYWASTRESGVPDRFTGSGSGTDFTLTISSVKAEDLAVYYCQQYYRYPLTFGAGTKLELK
notes: also called anti-HB-EGF mouse antibody KM3566; monoclonal antibody produced by hybridoma KM3566 (FERM BP-10490)

relative binding activity (ratio to pRTHGC-6) [3]: ~0.33 fraction of binding to pRTHGC-6
kon [1]: 240000 M⁻¹ s⁻¹
B2: anti-HB-EGF chimeric antibody KM3966 (antibody, V domains shown)
VH: B1 VH
VL: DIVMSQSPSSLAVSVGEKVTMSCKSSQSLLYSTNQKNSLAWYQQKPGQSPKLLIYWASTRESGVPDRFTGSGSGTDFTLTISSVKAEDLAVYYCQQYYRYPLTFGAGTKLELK
notes: also called human chimeric antibody KM3966; anti-HB-EGF monoclonal antibody KM3966
